Results from patent US20140274782A1 (Stanford University, published 2014).

How the values were obtained:
Assay in all cases: ProtoArray, GST-treated control array;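 also: human protein microarray (about 9500 recombinant proteins) incubated overnight with GST alone plus SAM cofactor as the negative control for G9a SET domain methylation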
[1] = biological target: T1, KIFC1-kinesin family member C1 (KIFC1) (human, UniProt Q9BW19 1-673)
T1 sequence (looked up): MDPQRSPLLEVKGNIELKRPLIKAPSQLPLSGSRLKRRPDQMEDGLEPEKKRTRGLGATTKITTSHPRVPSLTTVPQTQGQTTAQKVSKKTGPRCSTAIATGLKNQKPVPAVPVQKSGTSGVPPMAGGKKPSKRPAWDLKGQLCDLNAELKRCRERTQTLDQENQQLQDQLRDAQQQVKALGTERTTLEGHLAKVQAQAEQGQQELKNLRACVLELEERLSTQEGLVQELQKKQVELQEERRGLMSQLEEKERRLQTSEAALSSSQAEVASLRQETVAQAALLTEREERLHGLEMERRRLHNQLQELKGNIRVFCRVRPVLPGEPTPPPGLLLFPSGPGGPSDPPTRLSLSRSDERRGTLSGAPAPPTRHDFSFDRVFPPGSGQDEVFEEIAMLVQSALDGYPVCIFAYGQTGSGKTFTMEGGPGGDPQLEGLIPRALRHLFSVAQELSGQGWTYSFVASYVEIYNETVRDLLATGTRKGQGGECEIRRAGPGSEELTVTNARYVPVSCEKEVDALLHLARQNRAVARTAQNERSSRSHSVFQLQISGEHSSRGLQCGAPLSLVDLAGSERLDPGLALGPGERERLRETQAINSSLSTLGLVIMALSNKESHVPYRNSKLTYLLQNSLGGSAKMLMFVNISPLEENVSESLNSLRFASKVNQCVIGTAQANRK
Protocol: (§1) Briefly, a ProtoArray (Invitrogen, version 5.0) was incubated overnight with 50 μg of GST or recombinant GSTtagged G9a SET domain and the cofactor SAM.
(§2) Arrays were analyzed using GenePix Pro 6.1 software (Molecular Devices) and feature values were assigned to proteins using the array list provided by Invitrogen. We designated the following criteria for “hits”: GST array signal-to-noise ratio (SNR) less than or equal to 1.5, G9a array SNR greater than or equal to 10, and a difference between the G9a array SNR and the GST array SNR of greater than or equal to 12. Hits were individually visually validated. Proteins were removed from the list of potential substrates if irregular array features appeared to interfere with the array spots or SNR calculations.
(§3) Protein arrays bearing almost 9500 recombinant human proteins were methylated using GST-tagged recombinant G9a SET domain or GST alone as a control as shown in FIG. 4. […] Results were filtered for proteins scoring a GST array signal-to-noise ratio (SNR) less than or equal to 1.5, a G9a array SNR greater to or equal to 10, and a difference between the G9a and GST SNRs of greater than or equal to 12. Subsequent proteins were individually inspected for irregular array features.

[2] = biological target: TTC27-Tetratricopeptide repeat protein 27 (human, UniProt Q6P3X3 1-843)
Protocol: as §1, §2, §3

[3] = biological target: T2, C12orf60-Uncharacterized protein C12orf60 (human, UniProt Q5U649 1-245)
T2 sequence (looked up): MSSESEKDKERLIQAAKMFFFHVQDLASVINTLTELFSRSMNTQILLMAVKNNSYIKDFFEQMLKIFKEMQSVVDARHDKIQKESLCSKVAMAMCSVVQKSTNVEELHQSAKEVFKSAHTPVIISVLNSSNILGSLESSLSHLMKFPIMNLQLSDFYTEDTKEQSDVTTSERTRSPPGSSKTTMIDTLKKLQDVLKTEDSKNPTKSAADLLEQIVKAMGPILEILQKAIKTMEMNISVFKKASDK
Protocol: as §1, §2, §3

[4] = biological target: DGKA-diacylglycerol kinase, alpha 80 kDa (DGKA) (human, UniProt P23743 1-735)
Protocol: as §1, §2, §3

[5] = biological target: T3, MGC10433-RNA-binding protein 42 (human, UniProt Q9BTD8 1-480, limits assumed)
T3 sequence (looked up): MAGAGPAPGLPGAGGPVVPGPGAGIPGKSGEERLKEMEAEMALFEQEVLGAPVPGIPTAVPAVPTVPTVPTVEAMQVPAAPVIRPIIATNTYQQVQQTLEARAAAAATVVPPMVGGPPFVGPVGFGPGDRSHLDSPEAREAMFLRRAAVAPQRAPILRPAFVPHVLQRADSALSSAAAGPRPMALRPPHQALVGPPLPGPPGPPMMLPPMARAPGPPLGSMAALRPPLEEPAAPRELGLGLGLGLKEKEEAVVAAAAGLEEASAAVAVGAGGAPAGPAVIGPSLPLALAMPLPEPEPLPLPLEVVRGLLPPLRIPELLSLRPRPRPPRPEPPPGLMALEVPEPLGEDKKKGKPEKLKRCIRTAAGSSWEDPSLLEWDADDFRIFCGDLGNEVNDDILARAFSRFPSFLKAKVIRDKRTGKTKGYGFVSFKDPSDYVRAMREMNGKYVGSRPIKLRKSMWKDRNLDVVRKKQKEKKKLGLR
Protocol: as §1, §2, §3

[6] = biological target: T4, GPR108-G protein-coupled receptor 108 (GPR108) (human, UniProt Q9NPR9 33-543, limits assumed)
T4 sequence (looked up): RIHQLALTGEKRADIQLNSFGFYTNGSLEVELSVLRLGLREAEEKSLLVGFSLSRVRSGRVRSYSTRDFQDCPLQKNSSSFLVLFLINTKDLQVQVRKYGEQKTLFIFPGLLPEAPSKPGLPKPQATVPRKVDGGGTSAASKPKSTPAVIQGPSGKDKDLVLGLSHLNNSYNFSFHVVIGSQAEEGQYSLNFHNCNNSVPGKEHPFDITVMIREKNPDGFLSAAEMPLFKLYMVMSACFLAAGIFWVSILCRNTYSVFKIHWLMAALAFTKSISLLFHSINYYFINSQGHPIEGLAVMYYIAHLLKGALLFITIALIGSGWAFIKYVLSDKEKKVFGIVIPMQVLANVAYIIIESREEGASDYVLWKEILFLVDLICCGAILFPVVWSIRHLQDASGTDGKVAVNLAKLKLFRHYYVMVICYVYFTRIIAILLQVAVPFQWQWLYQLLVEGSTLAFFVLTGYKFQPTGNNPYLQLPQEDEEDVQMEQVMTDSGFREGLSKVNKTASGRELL
Protocol: as §1, §2, §3

[7] = biological target: T5, RASSF4-Ras association (RaIGDS/AF-6) domain family 4 (RASSF4) (human, UniProt Q9H2L5 1-321, limits assumed)
T5 sequence (looked up): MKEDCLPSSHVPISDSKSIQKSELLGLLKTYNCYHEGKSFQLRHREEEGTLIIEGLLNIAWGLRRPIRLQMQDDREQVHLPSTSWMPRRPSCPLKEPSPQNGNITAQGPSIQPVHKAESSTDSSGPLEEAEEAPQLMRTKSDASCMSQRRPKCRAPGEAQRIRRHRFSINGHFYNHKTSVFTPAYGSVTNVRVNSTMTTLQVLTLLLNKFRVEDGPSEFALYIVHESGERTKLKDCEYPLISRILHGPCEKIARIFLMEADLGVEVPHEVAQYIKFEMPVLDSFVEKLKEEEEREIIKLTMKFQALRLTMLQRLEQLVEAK
Protocol: as §1, §2, §3

Chain of DGKA-diacylglycerol kinase, alpha 80 kDa (DGKA) (P23743 whole entry): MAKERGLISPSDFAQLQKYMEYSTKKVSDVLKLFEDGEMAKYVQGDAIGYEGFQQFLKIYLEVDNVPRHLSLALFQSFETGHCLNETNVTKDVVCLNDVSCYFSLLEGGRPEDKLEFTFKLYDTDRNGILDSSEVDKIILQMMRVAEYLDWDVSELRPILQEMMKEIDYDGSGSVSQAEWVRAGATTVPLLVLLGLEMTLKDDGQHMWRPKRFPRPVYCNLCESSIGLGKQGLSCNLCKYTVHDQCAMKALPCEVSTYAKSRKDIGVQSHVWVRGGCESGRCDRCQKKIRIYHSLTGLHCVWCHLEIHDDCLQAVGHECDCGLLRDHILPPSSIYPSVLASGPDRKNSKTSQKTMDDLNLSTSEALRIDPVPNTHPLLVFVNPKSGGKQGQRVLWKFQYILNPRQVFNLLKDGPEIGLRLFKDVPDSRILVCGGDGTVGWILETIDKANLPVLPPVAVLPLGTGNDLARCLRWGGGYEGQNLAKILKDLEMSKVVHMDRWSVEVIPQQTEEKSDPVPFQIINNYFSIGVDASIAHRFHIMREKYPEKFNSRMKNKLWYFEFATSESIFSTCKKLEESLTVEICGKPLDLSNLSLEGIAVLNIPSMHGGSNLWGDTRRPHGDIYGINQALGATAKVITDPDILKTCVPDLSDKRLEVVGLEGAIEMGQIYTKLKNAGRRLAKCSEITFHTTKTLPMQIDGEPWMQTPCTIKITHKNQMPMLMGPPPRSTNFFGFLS

B1: 3× Flag-3×MBT (designed binder)
chain: EEWSSSQPATGEKKECWSWESYLEEQKAITAPVSLFQDSQAVTHNKNGFKLGMKLEGIDPQHPSMYFILTVAEVCGYRLRLHFDGYSECHDFWVNANSPDIHPAGWFEKTGHKLQPPKGYKEEEFSWSQYLRSTRAQAAPKHLFVSQSHSPPPLGFQVGMKLEAVDRMNPSLVCVASVTDVVDSRFLVHFDNWDDTYDYWCDPSSPYIHPVGWCQKQGKPLTPPQDYPDPDNFCWEKYLEETGASAVPTWAFKVRPPHSFLVNMKLEAVDRRNPALIRVASVEDVEDHRIKIHFDGWSHGYDFWIDADHPDIHPAGWCSKTGHPLQPPLGPREPSSASPGG
notes: also called Flag-tagged 3×MBT; 3xFlag-3xMBT; not shown: made by PreScission cleavage of GST-3× Flag-3×MBT
- GST Average SNR [1]: 0.745
- GST Average SNR [2]: 0.496
- GST Average SNR [3]: -0.007
- GST Average SNR [4]: 1.23
- GST Average SNR [5]: -0.357
- GST Average SNR [6]: -0.788
- GST Average SNR [7]: 1.16
